Five proteins from article PMC2837848 (Biochemistry, 2010) can be followed below.

B1: Salmonella typhimurium QAPRTase R118A (enzyme)
chain: MPPRRYNPDDRRDALLERINLDIPAAVAQALREDLGGEVDAGNDITAQLLPADTQAHATVITREDGVFCGKRWVEEVFIQLAGDDVRLTWHVDDGDAIHANQTVFELNGPARVLLTGEATALNFVQTLSGVASEVRRYVGLLAGTQTQLLDTRKTLPGLRTALKYAVLCGGGANHRLGLTDAFLIKENHIIASGSVRQAVEKAFWLHPDVPVEVEVENLDELDDALKAGADIIMLDNFNTDQMREAVKRVNGQARLEVSGNVTAETLREFAETGVDFISVGALTKHVRALDLSMRFC
B2: Salmonella typhimurium QAPRTase R175A (enzyme)
chain: B1 chain with A119R, R176A
B3: Salmonella typhimurium QAPRTase R152A (enzyme)
chain: B1 chain with A119R, R153A
B4: Salmonella typhimurium QAPRTase H188A (enzyme)
chain: B1 chain with A119R, H189A
B5: Salmonella typhimurium QAPRTase K185A (enzyme)
chain: B1 chain with A119R, K186A

Numbering of substitutions follows the chain as printed. Names may count otherwise.

The data set deals with the molecule itself. Description: SEC.
Consider B1, for which the stoichiometry N (usually a count of units in the complex or per binding partner) was 2.

As for B2, the “stoichiometry N” value worked out at 2.

For B3, the “stoichiometry N” value came to 2.

As for B4, the “stoichiometry N” value was 2.

For the protein B5, the “stoichiometry N” value is 2.
